34 molecules from US20200054723A1 (ALLAKOS, published 2020) can be followed below.

Positions count from the first letter of the chain named.

B1: HGKG (antibody, human IgG1, V domains shown)
VH: EVQLVESGGGLVQPGGSLRLSCAASGFSLTIYGAHWVRQAPGKGLEWVSVIWAGGSTNYNSALMSRFSISKDNSKNTVYLQMNSLRAEDTAVYYCARDGSSPYYYSMEYWGQGTTVTVSS
VL: EIVLTQSPATLSLSPGERATLSCSATSSVSYMHWYQQKPGQAPRLLIYSTSNLASGIPARFSGSGSGTDFTLTISSLEPEDFAVYYCQQRSSYPFTFGPGTKLDIK
notes: human IgG1/kappa; also called HGHG
B2: HA2KB (antibody, human IgG1, V domains shown)
VH: QVQLQESGPGLVKPSETLSLTCTVSGGSISIYGAHWIRQPPGKGLEWIGVIWAGGSTNYNSALMSRVTISVDTSKNQFSLKLSSVTAADTAVYYCARDGSSPYYYSMEYWGQGTLVTVSS
VL: B1 VL with V3I, Y35F, L46W, I57V, F70Y
notes: human IgG1/kappa
B3: cVHKB (antibody, human IgG1, V domains shown)
VH: QVQLKESGPGLVAPSQSLSITCTVSGFSLTIYGAHWVRQPPGKGLEWLGVIWAGGSTNYNSALMSRLSISKDNSKSQVFLKINSLQTDDTALYYCARDGSSPYYYSMEYWGQGTSVTVSS
VL: B1 VL with V3I, Y35F, L46W, I57V, F70Y
notes: human IgG1/kappa
B4: HBcVK (antibody, human IgG1, V domains shown)
VH: B1 VH with A24V, V48L, S49G, F67L
VL: QIILTQSPAIMSASPGEKVSITCSATSSVSYMHWFQQKPGTSPKLWIYSTSNLASGVPVRFSGSGSGTSYSLTISRMEAEDAATYYCQQRSSYPFTFGSGTKLEIK
notes: human IgG1/kappa
B5: HB2KA (antibody, human IgG1, V domains shown)
VH: B2 VH with G27F, I29L, S30T, I37V, I48L, V67L, T68S, V71K, T73N, F78V
VL: B1 VL with Y35F
notes: human IgG1/kappa
B6: HB2KC (antibody, human IgG1, V domains shown)
VH: B2 VH with G27F, I29L, S30T, I37V, I48L, V67L, T68S, V71K, T73N, F78V
VL: B1 VL with V3I, Y35F
notes: human IgG1/kappa
B7: RHE E-DKFmut (antibody, human IgG1, V domains shown)
VH: B1 VH with S49G, S68T, E108D
VL: B1 VL with Y35F, F70Y, F95Y
notes: human IgG1/kappa
B8: RHE S-GKA (antibody, human IgG1, V domains shown)
VH: B1 VH with S49G, S68T, S106G
VL: B1 VL with Y35F
notes: human IgG1/kappa
B9: RHE Y-VKFmut (antibody, human IgG1, V domains shown)
VH: B1 VH with S49G, S68T, Y109V
VL: B1 VL with Y35F, F70Y, F95Y
notes: human IgG1/kappa
B10: RHE Y-VKC (antibody, human IgG1, V domains shown)
VH: B1 VH with S49G, S68T, Y109V
VL: B1 VL with V3I, Y35F
notes: human IgG1/kappa
B11: RHE S-GKC (antibody, human IgG1, V domains shown)
VH: B1 VH with S49G, S68T, S106G
VL: B1 VL with V3I, Y35F
notes: human IgG1/kappa
B12: RHE Y-VKB (antibody, human IgG1, V domains shown)
VH: B1 VH with S49G, S68T, Y109V
VL: B1 VL with V3I, Y35F, L46W, I57V, F70Y
notes: human IgG1/kappa
B13: RHE Triple-KE (antibody, human IgG1, V domains shown)
VH: B1 VH with S49G, S68T, S106G, E108D, Y109V
VL: B1 VL with Y35F, I57V
notes: human IgG1/kappa
B14: RHE S-GKB (antibody, human IgG1, V domains shown)
VH: B1 VH with S49G, S68T, S106G
VL: B1 VL with V3I, Y35F, L46W, I57V, F70Y
notes: human IgG1/kappa
B15: RHE Y-VKF (antibody, human IgG1, V domains shown)
VH: B1 VH with S49G, S68T, Y109V
VL: B1 VL with Y35F, F70Y
notes: human IgG1/kappa
B16: HAcVK (antibody, human IgG1, V domains shown)
VH: B1 VH with S68T
VL: B4 VL
notes: human IgG1/kappa
B17: HA2KFmut (antibody, human IgG1, V domains shown)
VH: B2 VH
VL: B1 VL with Y35F, F70Y, F95Y
notes: human IgG1/kappa
B18: RHE Y-VKE (antibody, human IgG1, V domains shown)
VH: B1 VH with S49G, S68T, Y109V
VL: B1 VL with Y35F, I57V
notes: human IgG1/kappa
B19: RHE Y-VKA (antibody, human IgG1, V domains shown)
VH: B1 VH with S49G, S68T, Y109V
VL: B1 VL with Y35F
notes: human IgG1/kappa
B20: RHE E-DKC (antibody, human IgG1, V domains shown)
VH: B1 VH with S49G, S68T, E108D
VL: B1 VL with V3I, Y35F
notes: human IgG1/kappa
B21: RHE S-GKD (antibody, human IgG1, V domains shown)
VH: B1 VH with S49G, S68T, S106G
VL: B1 VL with Y35F, L46W
notes: human IgG1/kappa
B22: RHE E-DKA (antibody, human IgG1, V domains shown)
VH: B1 VH with S49G, S68T, E108D
VL: B1 VL with Y35F
notes: human IgG1/kappa
B23: RHE Triple-KA (antibody, human IgG1, V domains shown)
VH: B1 VH with S49G, S68T, S106G, E108D, Y109V
VL: B1 VL with Y35F
notes: human IgG1/kappa
B24: RHE Triple-KD (antibody, human IgG1, V domains shown)
VH: B1 VH with S49G, S68T, S106G, E108D, Y109V
VL: B1 VL with Y35F, L46W
notes: human IgG1/kappa
B25: RHE E-DKE (antibody, human IgG1, V domains shown)
VH: B1 VH with S49G, S68T, E108D
VL: B1 VL with Y35F, I57V
notes: human IgG1/kappa
B26: RHE Y-VKD (antibody, human IgG1, V domains shown)
VH: B1 VH with S49G, S68T, Y109V
VL: B1 VL with Y35F, L46W
notes: human IgG1/kappa
B27: RHE S-GKG (antibody, human IgG1, V domains shown)
VH: B1 VH with S49G, S68T, S106G
VL: B1 VL
notes: human IgG1/kappa
B28: RHE Y-VKG (antibody, human IgG1, V domains shown)
VH: B1 VH with S49G, S68T, Y109V
VL: B1 VL
notes: human IgG1/kappa
B29: RHE S-G KFmut (antibody, V domains shown)
VH: B1 VH with S49G, S68T, S106G
VL: B1 VL with Y35F, F70Y, F95Y
notes: human IgG1/kappa
B30: HB2KG (antibody, V domains shown)
VH: B2 VH with G27F, I29L, S30T, I37V, I48L, V67L, T68S, V71K, T73N, F78V
VL: B1 VL
notes: human IgG1/kappa
B31: RHE E-DKF (antibody, human IgG1, V domains shown)
VH: B1 VH with S49G, S68T, E108D
VL: B1 VL with Y35F, F70Y
notes: human IgG1/kappa
B32: RHE E-DKD (antibody, human IgG1, V domains shown)
VH: B1 VH with S49G, S68T, E108D
VL: B1 VL with Y35F, L46W
notes: human IgG1/kappa
B33: RHE E-DKB (antibody, human IgG1, V domains shown)
VH: B1 VH with S49G, S68T, E108D
VL: B1 VL with V3I, Y35F, L46W, I57V, F70Y
notes: human IgG1/kappa
B34: RHE S-GKF (antibody, human IgG1, V domains shown)
VH: B1 VH with S49G, S68T, S106G
VL: B1 VL with Y35F, F70Y
notes: human IgG1/kappa

In the experiment the target is T1, recombinant human Siglec-8 extracellular domain (ECD) (human, UniProt Q9NYZ4 17-363).
T1 construct: extracellular domain; also called Siglec-8 ECD; full Siglec-8 ECD
T1 sequence (Q9NYZ4 17-363): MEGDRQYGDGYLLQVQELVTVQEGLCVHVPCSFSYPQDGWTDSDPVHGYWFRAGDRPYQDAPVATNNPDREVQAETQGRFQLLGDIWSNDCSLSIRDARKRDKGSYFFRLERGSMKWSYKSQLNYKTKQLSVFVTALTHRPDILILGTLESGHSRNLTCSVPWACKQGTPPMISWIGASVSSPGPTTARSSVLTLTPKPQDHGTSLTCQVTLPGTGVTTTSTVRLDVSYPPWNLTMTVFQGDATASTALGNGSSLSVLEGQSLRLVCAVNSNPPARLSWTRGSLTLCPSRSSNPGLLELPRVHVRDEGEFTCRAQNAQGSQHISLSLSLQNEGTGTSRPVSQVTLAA
Kind of experiment: ELISA, coated Siglec-8 ECD. As for the experimental part: Binding of recombinant human Siglec-8 extracellular domain (ECD) by chimeric 2E2 and chimeric 2C4 IgG1K antibodies was measured by ELISA. […] Three-fold serial dilutions of a chimeric antibody (ch2E2 or ch2C4) or mouse antibody (m2E2 or m2C4) in 0.2% BSA/TBS (starting concentration was 5000 ng/mL) was added to each coated well. The plate was incubated for 2 hours at room temperature and the wells were subsequently washed before addition of goat-anti-human Fc peroxidase conjugate (1:10000 dilution) or anti-mouse Fc peroxidase conjugate (1:30000 dilution) diluted in 0.2% BSA/TBS solution. The plate was incubated for 45 minutes at room temperature, followed by washing and addition of 30 μL K-blue HRP substrate (SkyBio Ltd) to each well. After incubation at room temperature for 15 minutes, the reaction was stopped by adding 10 μL of Red Stop solution (SkyBio Ltd) to each well. The optical density or the experimental samples was read at 650 nm using the ELISA reader PHERAStar FS (BMG Labtech).
The fully humanized antibody heavy and light chains were combined and compared with the chimeric antibody to determine if replacing the 4 Å and canonical framework residues and interface residues was sufficient to successfully humanize 2E2. Expi293 cells were co-transfected with combinations of different humanized light chain vectors in association with different humanized heavy chain vectors. Siglec-8 antigen was used to measure antibody binding by ELISA as described in Example 1.
As a reminder, the EC50 is the midpoint of the concentration-response curve. In the case of B1, the EC50 worked out at 0.254 nM. In the case of B2, the EC50 was 124 nM. Next, B3: 0.027 nM.

B4: the EC50 came to 0.066 nM. Take B5: the EC50 was 0.051 nM. Turning to B6, the EC50 came to 0.101 nM. Next, B7: 1.4 nM. Next, B8: 50.6 nM; B9: 0.398 nM. Next, B10: 0.215 nM; B11: 173 nM; B12: 0.306 nM.

B13: the EC50 was 34.1 nM. B14: the EC50 is 627 nM.

Consider B15, for which the EC50 turned out to be 0.091 nM. Regarding B16, the EC50 was 0.067 nM. In the case of B17, the EC50 turned out to be 31.6 nM.

With B18, the EC50 turned out to be 0.07 nM.

B19: the EC50 amounted to 0.088 nM. As for B20, the EC50 came out at 0.516 nM.

As for B21, the concentration for a half-maximal effect (EC50) was found to be 8.65 nM. Turning to B22, the EC50 worked out at 0.388 nM.

Take B23: the EC50 amounted to 18.6 nM. As for B24, the EC50 was 13.2 nM. Next, B25: 0.364 nM; B26: 0.283 nM. Next, B27: 33.5 nM; B28: 8.81 nM. For the molecule B29, the EC50 came out at 207 nM. Take B30: the EC50 turned out to be 0.227 nM. On to B31, for which the EC50 is 0.445 nM. For B32 the value was 0.316 nM; for B33, 0.289 nM; for B34, 3.28 nM.
